The series relates to MS2 coat protein. In words: apparent KD of MS2 coat protein; designed switch direction (-1 OFF switch, 1 ON switch): 1; higher = weaker reporter binding. The essentials: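 On Illumina chips, designed RNA switches with common flanks were made by stalled E. coli RNA polymerase. Titrations with SNAP-549-labelled MS2 coat protein, doubling from 0.7 or 1.5 nM to 3 µM, were done with no input, with 200 uM small-molecule ligand, or with an oligonucleotide input. Apparent KD is the median per design over clusters, from curve fits of normalised cluster fluorescence.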

[1] abbreviates: Eterna round: R95, input ligand: FMN 200 uM.
[2] abbreviates: Eterna round: R95, input ligand: microRNA oligo, concentration not stated.
[3] abbreviates: Eterna round: R95, input ligand: none.
The mark [4] stands for this setting: input ligand: microRNA oligo, concentration not stated.

Consider “GUUAUACAUGAGGAUCACCCAUGUCAAUGUAGUCGAGGAUAUGGGCAGCUAUGAGGCGUACUAGAAGGCGAGGAGU [JL-ss1-3.15 ViennaUCT mod] (puzzle: Same State 1)”, for which the “apparent KD of MS2 coat protein” value is, setting by setting: under setting [1], 90.7 nM; under setting [2], 90.5 nM; under setting [3], 134 nM.

As for “UAAAAGAAGUUAGGAUAUGGUGAAGUACUGUGGCCAGAAGGGACGACUAACCGAGAAAGACAUGAGGAUCACCCAUGUCCACAG [Eternabot solution 20] (Eterna round: R96, puzzle: Same State NG 1)”, the “apparent KD of MS2 coat protein” value runs as follows: (input ligand: FMN 200 uM) 86.5 nM; under setting [4], 57 nM; (input ligand: none) 74.5 nM.

“UAAAUAAUGAUAGGAUAUACAUGAGGAAUCCUCGUAGAAGGAUCAUGACAUGAGGAUCACCCAUGUAACGCUCGAAAGAGCGUA [Mat - Same State NG 1 - JL mod - D44] (Eterna round: R96, puzzle: Same State NG 1)”: the “apparent KD of MS2 coat protein” value is, setting by setting: (input ligand: FMN 200 uM) 485 nM; under setting [4], 265 nM; (input ligand: none) 219 nM.

On to “UAAGGACAUGAGGAUCACCCAUGUGCUUCAUAUGGAGAAACUCAGGAUAUGCUGAGGAUCACCCAGCAGAAGGGAGAUCCGAGG (Eterna round: R96, puzzle: Same State NG 3)”, for which the “apparent KD of MS2 coat protein” value (input ligand: FMN 200 uM) worked out at 206 nM, the “apparent KD of MS2 coat protein” value under setting [4] was 279 nM and the “apparent KD of MS2 coat protein” value (input ligand: none) turned out to be 281 nM.

On to “UACAAUCUAUCUGAGGAUAUCAUGAAAAAAACAUGAGGAUCACCCAUGUGCAGGAAAACUGCAUAUGAGAAGGCAGAUAGAUUGG [salish99_SS2_r3_007] (Eterna round: R96, puzzle: Same State 2)”, for which, under setting [4], the “apparent KD of MS2 coat protein” value was 505 nM.

For the sequence “UACAAUCUAUCUGAGGAUAUCAUGAAAAAAACAUGAGGAUCACCCAUGUGCAGGAAAACUGCAUAUGAGAAGGCAGAUAGAUUGG [salish99_SS2_r3_007] (puzzle: Same State 2)”, the “apparent KD of MS2 coat protein” value under setting [1] turned out to be 14.3 nM, the “apparent KD of MS2 coat protein” value under setting [2] stood at 3390 nM and the “apparent KD of MS2 coat protein” value under setting [3] amounted to 11700 nM.

“UACAUACGCGGAGGAUAUGGGCGAGGCACGGAGGUCCGCGCCAAAACAUGAGGAUCACCCAUGUCCCAGAAGGCCGCACAAACU [Oreslaed] (Eterna round: R96, puzzle: Same State NG 2)”: the “apparent KD of MS2 coat protein” value is, setting by setting: (input ligand: FMN 200 uM) 13.8 nM; under setting [4], 54.4 nM; (input ligand: none) 83.1 nM.

For “UACCAUAGUAUAUUGGUGCAAGCUUUUUGACAUGAGGAUCACCCAUGUACUCGUCUUAUGUGCAGUCCGUAGACUGC [JL-shm-2.22 Brourd mod] (puzzle: Sensor for hsa-mir-208a)”, the “apparent KD of MS2 coat protein” value by setting is: under setting [1], 57.8 nM; under setting [2], 13 nM; under setting [3], 54.6 nM.

Consider “UACUUAGUGGUAGGAUAUGUAGGAUAUGGCGAGAGCUAAGCUUGGAAGUCACUUCAGCCAGAAGGACAGAAGGACCACUCUCUC [pwkr ssNG2 2FMN + F9.12] (Eterna round: R96, puzzle: Same State NG 2)”, for which the “apparent KD of MS2 coat protein” value was 98 nM (input ligand: FMN 200 uM), 17.4 nM under setting [4] and 97.1 nM (input ligand: none).

For the sequence “UAGAGAGGAAGCGAGGAUAUCGUGUGAGGUACAUGAGGAUCACCCAUGUUUGAUGUUGAGAGAGGCGAGAAGGCGCAGGAGAUUA [JR_SS2_Sub084] (puzzle: Same State 2)”, the “apparent KD of MS2 coat protein” value was found to be 34.1 nM under setting [1], 26.6 nM under setting [2] and 35.6 nM under setting [3].

Regarding “UAGAGAGGAAGCGAGGAUAUCGUGUUAGGUACAUGAGGAUCACCCAUGUUUUAGGUAGAGGUAGGCGAGAAGGCGCAGGAGAAGA [JR_SS2_Sub090] (puzzle: Same State 2)”, the “apparent KD of MS2 coat protein” value was found to be 25.8 nM under setting [1], 32.9 nM under setting [2] and 34 nM under setting [3].

Take “UAGCGCUGUCGAGAGGAUAUGCGGUGAUGGACAUGAGGAUCACCCAUGUUAGCGAUAGCAUUACGGUAGAAGGCUCUACAGCUGU [salish99_ss2_r3_093] (Eterna round: R96, puzzle: Same State 2)”: the “apparent KD of MS2 coat protein” value is, setting by setting: (input ligand: FMN 200 uM) 38.2 nM; under setting [4], 342 nM; (input ligand: none) 694 nM.

For “UAGCGCUGUCGAGAGGAUAUGCGGUGAUGGACAUGAGGAUCACCCAUGUUAGCGAUAGCAUUACGGUAGAAGGCUCUACAGCUGU [salish99_ss2_r3_093] (puzzle: Same State 2)”, the “apparent KD of MS2 coat protein” value under setting [2] amounted to 177 nM.

For the sequence “UAGGAUCAACGAGGAUAUAAUAGGUUCUAUUCGUGAUAUUGCGUACAUGAGGAUCACCCAUGUUAUUAGAAGGCGUAUGGGUUU [JR_SSNG2_Sub085] (Eterna round: R96, puzzle: Same State NG 2)”, the “apparent KD of MS2 coat protein” value was 78.7 nM (input ligand: FMN 200 uM), 69.9 nM under setting [4] and 92.8 nM (input ligand: none).

Source of the values: the supplement of paper PMC9170038.
